Source: patent publication US20160368985A1 (published 2016)

T1: human E11 protein (E11 domain of human FcRH5), soluble (human, UniProt Q96RD9 745-850)
T1 construct: Expressed in CHO cells; also called human E11 domain
T1 sequence: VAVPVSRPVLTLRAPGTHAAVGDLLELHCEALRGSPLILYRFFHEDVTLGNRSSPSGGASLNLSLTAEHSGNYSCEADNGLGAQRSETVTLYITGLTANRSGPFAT

T2: cynomolgus E11 protein (E11 domain of cynomolgus FcRH5), soluble (cynomolgus monkey)
T2 chain: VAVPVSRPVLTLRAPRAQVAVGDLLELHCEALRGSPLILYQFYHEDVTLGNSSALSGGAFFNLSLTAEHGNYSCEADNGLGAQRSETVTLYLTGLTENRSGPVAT

B1: 15G8 (antibody, mouse IgG2a, V domains shown)
VH: EVQLQQSGPELVKPGASVKMSCKASGYTFTNYVIHWMKQKPGQGLEWIGYISPYNDYTKYNEKFEGKATLTSDKSSNTAYMELSSLTSEDSAVYYCARRDYYGSSDYWGQGTTLTVSS
VL: QIVLTQSPAIMSASPGEKVTMTCSASSSVDYMHWYQQKSGTSPKKWIYDTSKLASGVPARFSGSGSGTSYSLTIGSMEAEDAATYYCQQWSSNPPTFGGGTKLEIK
notes: Mouse mAb, Immunization Campaign C; expressed recombinantly as murine IgG2a for SPR; also called mAb 15G8
B2: 17B1 (antibody, mouse IgG2a, V domains shown)
VH: QVQLQQSGPELVRPGVSVKISCKGSGYTFTHYAMHWVKQSHTKSLEWIGMISSSSGNTNFNQKFMDKATMTVDKSSTTAYLELARLTFGDSAIYYCARWSYYALFDYWGQGTTVTVSS
VL: ENVLTQSPAIMSASPGEKVTMTCSADSSVDYIHWYQQKSNTSPKLWIYDTSKLASGVPGRFSGSGSGNSYSLTISSMEAEDFATYYCFQGSGYPLTFGSGTKLELK
notes: Mouse mAb, Immunization Campaign C; expressed recombinantly as murine IgG2a for SPR

Legend:
[1] = target: T1, human E11 protein (E11 domain of human …); test: SPR BIACORE T200, IgG capture, monovalent
[2] = target: T2, cynomolgus E11 protein (E11 domain of …); test: SPR BIACORE T200, IgG capture, monovalent

Binder | Kd [1] [nM] | Kd [2] [nM]
B1 | 0.5 | 9.1
B2 | 68 | 27
